The results in this text go back to the nanobody polyreactivity screen of Harvey et al. (2022).

This series is described as follows: yeast display, Sf9 membrane polyspecificity reagent, FACS + sequencing; frameworks hold sequencing errors. The method in brief:
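Galactose induction of a Saccharomyces cerevisiae BJ5465 synthetic nanobody display library ran 36–48 hours. The cells were then stained for 1 hour at 4 °C with 10% biotinylated, detergent-solubilized Sf9 membrane reagent, pulled down on streptavidin microbeads and FACS-sorted into low and high (top ~1%) gates on expression and reagent-binding fluorescence. Labels for polyreactivity follow the gate of origin.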
Regarding “QDQLVDSGGGLVQAGGSLRLSCAASGSTFDANAMGWYRQAPGKERELVATISDGGSTNYADSVKGRFTISRDNAKNTVYLQMNSLKPEDTAVYYCAAVKLFLGLGYVYWGQGTQVTVSS”, the “polyreactivity (PSR sort gate)” value is reported as “low polyreactivity”. Regarding “QDQLVDSGGGLVQAGGSLSLSCAASGRNFGLNAKGWYRQAPGKEREFVAAIDWNDASTFYADSVKGRFTISRDNAENTVYLQMNSLKPVETAVYYCAAPWWVTTGTKFDYWGQGTQVTVSS”, the “polyreactivity (PSR sort gate)” value was “high polyreactivity”.

Turning to “QDQLVDSGGGLVQAGGSLSLSCAASGSILRTYAMGWYRQAPGKERELVAAISYRGVSTYYADSVKGRFTISRDNAKNTVYLQMNSLKPEDTAVYYCAADQLSDEYDYWGQGTQVTVSS”, the “polyreactivity (PSR sort gate)” value is given as “high polyreactivity”. Take “QDQLVDTVGGLVQAGGSLRLSCAASGRTFWFYAMGWYRQAPGKESELVASITTGGGTNYADSVKGRFTISRDNAKITVYLQMNSLKPEDTAVYYCAVKRYHFGSGVDWYGGSSYGYWGQGTQVTVSS”: the “polyreactivity (PSR sort gate)” value was “high polyreactivity”. Regarding “QDQLVEAGGGLVQAGGSLRLSCAASRRTFWKYARGWYIQAPGKERELVAAISSSGGNTYYADSVKGRFTISRDNAKNTVYLQMNRLKPEDTAVYYCAAPLPRGAYFYWGQGTQVTVSS”, the “polyreactivity (PSR sort gate)” value is reported as “high polyreactivity”.

Regarding “QDQLVESGGCLVQAGGSLRLSCASSGSTFGDYAMGWYRQAPGKERELVAAISVSGASTYYADSVKGRFTISRDNAKNTVYLQMNSLKPEDTAVYYCAASYDTIGDSWGQGTQVSVSS”, the “polyreactivity (PSR sort gate)” value is “low polyreactivity”. For “QDQLVESGGGIVQAGGSLRLSCAASGSTFYENAMGWYRQAPGKERELVAAITWSGGRTYYADSVKGRFTISRDNAKNTVYLQMNSLKPEDTAVYYCAALYGVSEEDDYWGQGTQVTVSS”, the “polyreactivity (PSR sort gate)” value was “high polyreactivity”. As for “QDQLVESGGGKVQAGGSLRLRCAASGRIFQYYTMVWSRQAPGKERELVAGITRGDRTYADSVKGRFTISRDNAKNTVYLQMNSLKQEDTAVYYCNADVYPYTLALPAGMGYWGQGTQVTVSS”, the “polyreactivity (PSR sort gate)” value was “high polyreactivity”.

Turning to “QDQLVESGGGLDQAGGRLRLSCAASGFTFGRNAMGWYRPAPGKERELDAASSWSGGSTYYADSVKGRFTISRDYAKNTVYVQMNSLKPEDTAVYYCNKRSRLGRGNRDYWGQGTQVTVSS”, the “polyreactivity (PSR sort gate)” value is listed as “high polyreactivity”. For “QDQLVESGGGLDQAGRSLRLSCAASGFTYRPYAMGWYRQEPGKERELVAAISSIGSTYYADSVKGRFTISRDNAKYTVYLPMNSLNPEDTAVYYCIADSYVRSTIFDHWGQGTQVTVSS” the value was “low polyreactivity”; for “QDQLVESGGGLFQAGGSLRLSCAASGRTFYTYAMGRYRPAPRKERELVAAITSGDGTYYADSVKGRFTISRDNAKNTVYLQMNSLKPEDTAVYYCADTRTYQLYRWAPRYYYWGQGTQVTVSS”, “high polyreactivity”; for “QDQLVESGGGLLQAGGILRLRCAASGSILNYYAMGWYIQAPGKERELVAAISSSDGRTYYAYSEKGRFTISRDNAKNTVYLQMNSLKPEDSAVYYCAAEGTYSYSSWYEYWGQGTQVTLSS”, “high polyreactivity”.

Turning to “QDQLVESGGGLLQAGGTLRLSCAASGPTFRAKAMGWNRQSPGKERELVAAITWDGGSRYYADSVKGRFTISRDYAKNTVYLQMNSLKPEYTAVYYCNTYPYLWGQGTLVTVSS”, the “polyreactivity (PSR sort gate)” value is “low polyreactivity”. As for “QDQLVESGGGLVHAGGSLRLSCAASGSTFDRYALGWYRQAPVKERELVATITRSGSTNYADSVKGRFTISRDNAKNTVYLQMNSLKTEDTAVYYCAAYDRITRYDYWGQGTQVTVSS”, the entry is “high polyreactivity”; as for “QDQLVESGGGLVQAGASLRLSCPASGFLFESNAMGWYRQAPGKERELVAAITKRGGSTYYADSVKGRFTISRDNAKNTVYLQMKSLKPEDTAVYYCARYSSRYSSGYDYWGQGTQVTVSS”, “high polyreactivity”; as for “QDQLVESGGGLVQAGCSLRLSCAASGRTFKDYAMGWYRQAPGKERELVAAITYRDRTYYADSVKGRFTISRDNAKNTVYLQMNSLNTEDTAVYYCNAEGFSGMDYWGKGTQVTVSS”, “low polyreactivity”.
